Assay results published in patent US20260184748A1 (University of Pennsylvania, published 2026).
Where no end group is shown, it is not given here.

Columns and labels:
Experiment in all cases: cell-based or functional assay
CCR2 = target: T1, CCR2 (UniProt P41597-2 1-360, limits assumed)
T1 sequence (looked up): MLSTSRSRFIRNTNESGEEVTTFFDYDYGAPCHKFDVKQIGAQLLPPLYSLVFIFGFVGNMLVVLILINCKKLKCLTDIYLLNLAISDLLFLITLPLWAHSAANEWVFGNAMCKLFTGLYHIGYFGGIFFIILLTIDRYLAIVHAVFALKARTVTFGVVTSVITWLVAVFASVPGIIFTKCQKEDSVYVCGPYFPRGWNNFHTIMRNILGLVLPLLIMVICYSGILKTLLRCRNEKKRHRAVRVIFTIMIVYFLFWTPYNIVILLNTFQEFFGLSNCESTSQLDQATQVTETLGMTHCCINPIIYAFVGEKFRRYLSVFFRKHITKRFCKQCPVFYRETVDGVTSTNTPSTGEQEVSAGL

PTGER2 = PTGER2 (UniProt P43116 1-358)
Chain of PTGER2 (P43116 whole entry): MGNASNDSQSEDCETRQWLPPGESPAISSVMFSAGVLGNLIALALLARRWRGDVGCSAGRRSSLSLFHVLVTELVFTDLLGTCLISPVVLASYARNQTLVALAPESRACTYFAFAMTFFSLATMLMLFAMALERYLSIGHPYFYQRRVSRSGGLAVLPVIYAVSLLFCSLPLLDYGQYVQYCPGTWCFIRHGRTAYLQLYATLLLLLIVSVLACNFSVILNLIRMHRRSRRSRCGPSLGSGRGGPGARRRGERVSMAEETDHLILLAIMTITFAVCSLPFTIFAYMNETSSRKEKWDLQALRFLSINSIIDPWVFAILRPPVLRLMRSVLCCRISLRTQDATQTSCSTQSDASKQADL

NPBWR2 = NPBWR2 (UniProt P48146 1-333)
Chain of NPBWR2 (P48146 whole entry): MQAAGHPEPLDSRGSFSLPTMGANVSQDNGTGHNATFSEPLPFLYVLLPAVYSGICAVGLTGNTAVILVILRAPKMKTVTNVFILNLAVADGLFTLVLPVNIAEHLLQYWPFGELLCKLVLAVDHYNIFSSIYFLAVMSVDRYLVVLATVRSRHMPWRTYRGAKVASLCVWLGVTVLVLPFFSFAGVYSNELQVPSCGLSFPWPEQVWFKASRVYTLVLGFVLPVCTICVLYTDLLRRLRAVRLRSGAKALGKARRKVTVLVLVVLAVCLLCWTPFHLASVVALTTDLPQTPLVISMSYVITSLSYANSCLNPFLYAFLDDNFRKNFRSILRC

DRD2S = DRD2S (UniProt P14416-2 1-414)
Chain of DRD2S (P14416 other isoform, or with tags, fused parts or gaps limits assumed): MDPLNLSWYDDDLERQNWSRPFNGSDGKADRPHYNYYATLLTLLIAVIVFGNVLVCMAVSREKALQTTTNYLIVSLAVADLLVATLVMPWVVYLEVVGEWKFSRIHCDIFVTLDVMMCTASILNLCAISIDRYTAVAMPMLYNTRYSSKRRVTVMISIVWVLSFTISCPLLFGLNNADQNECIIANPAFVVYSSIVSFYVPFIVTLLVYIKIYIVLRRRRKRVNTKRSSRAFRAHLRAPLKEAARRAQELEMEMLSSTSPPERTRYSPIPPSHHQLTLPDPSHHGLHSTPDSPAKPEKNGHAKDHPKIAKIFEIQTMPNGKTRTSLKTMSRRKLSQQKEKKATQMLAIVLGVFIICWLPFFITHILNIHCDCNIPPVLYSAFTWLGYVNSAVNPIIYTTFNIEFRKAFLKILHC

HTR2C = target: T2, HTR2C (UniProt P28335 33-458, limits assumed)
T2 sequence (looked up): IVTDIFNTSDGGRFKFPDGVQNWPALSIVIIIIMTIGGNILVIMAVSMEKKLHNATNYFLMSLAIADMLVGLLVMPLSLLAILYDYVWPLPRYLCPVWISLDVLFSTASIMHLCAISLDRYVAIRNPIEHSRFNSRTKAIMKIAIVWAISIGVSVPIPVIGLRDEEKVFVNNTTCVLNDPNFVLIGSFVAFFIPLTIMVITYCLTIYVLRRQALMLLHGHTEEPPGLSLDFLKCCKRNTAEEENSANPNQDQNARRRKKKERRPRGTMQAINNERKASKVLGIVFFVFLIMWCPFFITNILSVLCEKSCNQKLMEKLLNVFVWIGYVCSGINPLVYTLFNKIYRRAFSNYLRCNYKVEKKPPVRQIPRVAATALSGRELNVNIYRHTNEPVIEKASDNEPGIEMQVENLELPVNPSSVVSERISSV

GPR119 = target: T3, GPR119 (UniProt Q8TDV5 1-335)
T3 sequence (looked up): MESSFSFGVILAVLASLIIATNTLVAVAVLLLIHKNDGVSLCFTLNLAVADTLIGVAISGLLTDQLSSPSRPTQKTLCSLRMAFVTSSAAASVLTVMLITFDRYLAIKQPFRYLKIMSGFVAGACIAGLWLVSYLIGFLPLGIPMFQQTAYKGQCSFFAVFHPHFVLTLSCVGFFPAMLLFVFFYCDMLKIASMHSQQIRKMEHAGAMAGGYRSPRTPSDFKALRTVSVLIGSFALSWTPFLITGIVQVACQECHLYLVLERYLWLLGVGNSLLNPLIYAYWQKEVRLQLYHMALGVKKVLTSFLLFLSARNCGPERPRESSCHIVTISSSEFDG

NPY2R = target: T4, NPY2R (UniProt P49146 1-381)
T4 sequence (looked up): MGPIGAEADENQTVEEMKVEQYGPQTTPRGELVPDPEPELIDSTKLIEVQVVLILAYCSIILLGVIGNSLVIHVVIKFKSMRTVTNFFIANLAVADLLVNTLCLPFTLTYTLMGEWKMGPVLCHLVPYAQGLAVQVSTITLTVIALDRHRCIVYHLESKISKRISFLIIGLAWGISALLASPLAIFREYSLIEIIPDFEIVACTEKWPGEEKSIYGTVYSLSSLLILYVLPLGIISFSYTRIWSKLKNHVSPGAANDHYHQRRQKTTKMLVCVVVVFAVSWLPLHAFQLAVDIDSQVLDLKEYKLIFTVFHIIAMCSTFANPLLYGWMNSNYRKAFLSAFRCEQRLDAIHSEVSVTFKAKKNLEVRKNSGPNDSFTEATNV

CHRM4 = target: T5, CHRM4 (UniProt P08173 1-479)
T5 sequence (looked up): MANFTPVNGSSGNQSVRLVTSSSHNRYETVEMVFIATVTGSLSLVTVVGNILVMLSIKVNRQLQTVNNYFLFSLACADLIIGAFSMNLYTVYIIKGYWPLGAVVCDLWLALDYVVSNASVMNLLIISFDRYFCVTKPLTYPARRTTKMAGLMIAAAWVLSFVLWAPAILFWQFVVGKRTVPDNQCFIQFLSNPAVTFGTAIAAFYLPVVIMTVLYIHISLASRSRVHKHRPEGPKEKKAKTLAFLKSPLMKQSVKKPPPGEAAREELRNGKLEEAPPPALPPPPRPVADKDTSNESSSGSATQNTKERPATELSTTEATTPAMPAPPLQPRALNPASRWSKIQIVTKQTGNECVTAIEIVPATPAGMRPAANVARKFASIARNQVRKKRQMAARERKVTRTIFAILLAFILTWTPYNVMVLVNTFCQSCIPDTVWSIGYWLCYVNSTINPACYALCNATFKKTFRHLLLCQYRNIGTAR

HTR5A = HTR5A (UniProt P47898 1-357)
Chain of HTR5A (P47898 whole entry): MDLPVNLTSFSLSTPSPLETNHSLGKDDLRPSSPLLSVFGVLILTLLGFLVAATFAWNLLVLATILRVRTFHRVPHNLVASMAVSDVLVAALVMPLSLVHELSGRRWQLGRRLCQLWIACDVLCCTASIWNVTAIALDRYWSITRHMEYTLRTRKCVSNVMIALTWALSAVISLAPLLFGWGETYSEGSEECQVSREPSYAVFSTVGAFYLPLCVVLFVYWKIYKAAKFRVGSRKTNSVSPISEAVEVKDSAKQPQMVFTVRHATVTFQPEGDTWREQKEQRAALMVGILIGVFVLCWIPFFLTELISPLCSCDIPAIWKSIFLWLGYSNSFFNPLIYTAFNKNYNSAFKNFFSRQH

F2RL1 = F2RL1 (UniProt P55085 26-397, limits assumed)
EDG4 = EDG4 (UniProt Q9HBW0 1-348)
Chain of EDG4 (Q9HBW0 whole entry): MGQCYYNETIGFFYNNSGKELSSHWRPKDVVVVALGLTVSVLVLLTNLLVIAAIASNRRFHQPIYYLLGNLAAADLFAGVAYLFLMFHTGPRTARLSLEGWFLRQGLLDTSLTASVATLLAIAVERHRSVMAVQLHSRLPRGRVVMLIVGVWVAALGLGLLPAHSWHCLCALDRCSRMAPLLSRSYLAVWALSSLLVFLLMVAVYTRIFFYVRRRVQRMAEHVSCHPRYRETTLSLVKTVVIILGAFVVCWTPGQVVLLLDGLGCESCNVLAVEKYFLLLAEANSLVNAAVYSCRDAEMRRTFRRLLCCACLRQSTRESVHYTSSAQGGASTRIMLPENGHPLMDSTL

CCR4 = target: T6, CCR4 (UniProt P51679 1-360)
T6 sequence (looked up): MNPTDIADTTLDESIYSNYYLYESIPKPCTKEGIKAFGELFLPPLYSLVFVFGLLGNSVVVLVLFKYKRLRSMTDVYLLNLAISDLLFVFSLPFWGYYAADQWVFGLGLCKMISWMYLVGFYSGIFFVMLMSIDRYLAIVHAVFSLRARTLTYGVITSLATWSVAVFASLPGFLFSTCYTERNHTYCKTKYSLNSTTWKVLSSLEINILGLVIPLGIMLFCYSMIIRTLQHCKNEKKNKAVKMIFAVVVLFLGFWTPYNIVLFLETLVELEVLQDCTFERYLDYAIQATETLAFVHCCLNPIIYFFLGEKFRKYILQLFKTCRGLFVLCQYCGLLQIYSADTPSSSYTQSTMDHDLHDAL

HTR1B = HTR1B (UniProt P28222 1-390)
Chain of HTR1B (P28222 whole entry): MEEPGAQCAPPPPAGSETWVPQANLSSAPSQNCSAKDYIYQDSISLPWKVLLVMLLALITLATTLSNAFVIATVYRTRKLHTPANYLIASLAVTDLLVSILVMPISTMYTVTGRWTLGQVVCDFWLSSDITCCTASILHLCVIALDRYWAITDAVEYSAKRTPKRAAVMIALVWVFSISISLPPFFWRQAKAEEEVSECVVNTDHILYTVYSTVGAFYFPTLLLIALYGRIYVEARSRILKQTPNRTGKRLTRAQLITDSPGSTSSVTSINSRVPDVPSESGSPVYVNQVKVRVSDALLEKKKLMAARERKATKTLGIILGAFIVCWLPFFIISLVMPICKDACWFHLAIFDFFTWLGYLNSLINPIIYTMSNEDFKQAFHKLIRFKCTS

P2RY4 = P2RY4 (UniProt P51582 1-365)
Chain of P2RY4 (P51582 whole entry): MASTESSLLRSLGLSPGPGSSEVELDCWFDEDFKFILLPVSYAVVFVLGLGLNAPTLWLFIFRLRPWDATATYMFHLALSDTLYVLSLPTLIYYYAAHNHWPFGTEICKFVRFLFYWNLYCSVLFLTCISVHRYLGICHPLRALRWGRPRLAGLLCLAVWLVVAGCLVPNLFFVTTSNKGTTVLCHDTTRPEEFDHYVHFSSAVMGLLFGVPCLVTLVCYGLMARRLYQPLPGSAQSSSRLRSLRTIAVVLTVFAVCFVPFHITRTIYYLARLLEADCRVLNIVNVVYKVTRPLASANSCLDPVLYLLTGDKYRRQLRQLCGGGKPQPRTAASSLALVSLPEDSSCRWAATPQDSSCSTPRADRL

QATVGDVNTDRPGLLDLK (also: synthesised on Rink amide resin, C-terminal amide not given here outright) [octadecaneuropeptide (ODN)]
% Activity, arrestin, antagonist mode, 2.5 uM (CCR2): -15.4% | % Activity, arrestin, antagonist mode, 2.5 uM (PTGER2): 2.1% | % Activity, arrestin, antagonist mode, 2.5 uM (NPBWR2): -1.1% | % Activity, arrestin, antagonist mode, 2.5 uM (DRD2S): -13.4% | % Activity, arrestin, antagonist mode, 2.5 uM (HTR2C): 2.2% | % Activity, arrestin, antagonist mode, 2.5 uM (GPR119): -1% | % Activity, arrestin, antagonist mode, 2.5 uM (NPY2R): -10.3% | % Activity, arrestin, antagonist mode, 2.5 uM (CHRM4): 5.8% | % Activity, arrestin, antagonist mode, 2.5 uM (HTR5A): -0.3% | % Activity, arrestin, antagonist mode, 2.5 uM (F2RL1): -9.2% | % Activity, arrestin, antagonist mode, 2.5 uM (EDG4): 4.6% | % Activity, arrestin, antagonist mode, 2.5 uM (CCR4): 1.3% | % Activity, arrestin, antagonist mode, 2.5 uM (HTR1B): -11.9% | % Activity, arrestin, antagonist mode, 2.5 uM (P2RY4): 12.9%
